B1: AT1R wildtype C-terminally fused to YPet [not stated] / AT1R wildtype coupled to mTurquoise2 [not stated] (parent)
chain 1: MILNSSTEDGIKRIQDDCPKAGRHNYIFVMIPTLYSIIFVVGIFGNSLVVIVIYFYMKLKTVASVFLLNLALADLCFLLTLPLWAVYTAMEYRWPFGNYLCKIASASVSFNLYASVFLLTCLSIDRYLAIVHPMKSRLRRTMLVAKVTCIIIWLLAGLASLPAIIHRNVFFIENTNITVCAFHYESQNSTLPIGLGLTKNILGFLFPFLIILTSYTLIWKALKKAYEIQKNKPRNDDIFKIIMAIVLFFFFSWIPHQIFTFLDVLIQLGIIRDCRIADIVDTAMPITICIAYFNNCLNPLFYGFLGKKFKRYFLQLLKYIPPKAKSHSNLSTKMSTLSYRPSDNVSSSTKKPAPCFEVE
chain 2: B1 chain 1

In assay [1] the parent is B1. Nature of the assay: FLIM (FRET) in living HEK293 cells. Conditions: with AT1R wildtype coupled to mTurquoise2, 2-exponential fitting, acceptor AT1R-YPet, read off a plot.
The variants in assay [2] derive from B1. Nature of the assay: intensity-based FRET microscopy in living HEK293 cells. The following applies: with AT1R wildtype coupled to mTurquoise2; donor AT1R-mTurquoise2 (wildtype), acceptor AT1R-YPet; read off a plot.

Among the data in PMC11335197 are donor fluorescence lifetime and response values, retold here.

On to chain 1 S189A I193A L197A I201A L202A L205A F206A, for which the donor fluorescence lifetime in assay [1] turned out to be 3.5 ns. In addition, in assay [2], the response came out at 35%.

Consider chain 1 Y54A F55A F96A Y99A L100A, for which, in assay [1], the donor fluorescence lifetime was found to be 3 ns. Moreover, in assay [2], the response came to 67%.
